Tests used:
[1] = molecular target: EREG/sEGFR501 complex (human) (UniProt P00533); assay: small-angle X-ray scattering
[2] = molecular target: sEGFR501 1-501 (Homo sapiens) (UniProt P00533); settings: cited from earlier work

Row | Kd [1] | Substance | Kd [2]
1 | > 200000 nM | EREG/sEGFR501 complex (from UniProt P00533 25-525; O14944 56-116) | –
2 | – | sEGFR501 1-501 (from UniProt P00533) | 3000 nM

— article PMC5650921
